Where two headings read alike, the source gives them in different places.
Key:
[1] = target: T1, Human PD-1 (prepared in Leadsbiolabs, amino acid sequence of NP_005009.2 set forth in SEQ ID NO.: 66) (human, UniProt Q15116 25-170, limits assumed); experiment: blocking ELISA, human PD-1 coated, blocked ligand human PD-L1-mouse Fc-tag; fit value printed in the table although the control's curve does not fall (see non_binding)
[2] = target: T2, Human PD-1 protein (SINO Biological Inc., Cat#10377-H08H-100) (human, UniProt Q15116 25-167); experiment: ELISA, human PD-1 coated at 25 ng/well
T2 construct: Bought protein
T2 sequence (Q15116 25-167 limits assumed): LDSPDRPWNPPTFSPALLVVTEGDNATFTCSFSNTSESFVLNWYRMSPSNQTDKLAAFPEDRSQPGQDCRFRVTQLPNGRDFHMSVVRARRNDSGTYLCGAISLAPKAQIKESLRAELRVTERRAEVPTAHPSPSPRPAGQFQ

[3] = target: T3, cynomolgus PD-1-his protein (Acrobiosystems, Cat# PD1-05223) (cynomolgus monkey, UniProt B0LAJ3 25-170); experiment: ELISA, cynomolgus PD-1 coated at 25 ng/well
T3 construct: also called cynoPD-1-his; cynomolgus PD-1 protein
T3 sequence (B0LAJ3 entry or part of it limits assumed): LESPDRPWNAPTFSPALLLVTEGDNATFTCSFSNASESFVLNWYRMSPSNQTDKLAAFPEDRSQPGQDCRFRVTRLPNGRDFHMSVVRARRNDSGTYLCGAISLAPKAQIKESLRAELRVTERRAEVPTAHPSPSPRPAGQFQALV

[4] = target: T4, human PD-1 of SEQ ID NO.: 66 stably expressed on transfected cells (CHO-K1-PD-1 cells; Jurkat-NFAT-PD1 cells) (human, UniProt Q15116 25-288); experiment: flow cytometry on CHO-K1 cells stably expressing human PD-1, MFI
T4 construct: also called cell surface PD-1; PD-1 expressed on CHO-K1-PD-1 cells
T4 sequence (Q15116 25-288 limits assumed): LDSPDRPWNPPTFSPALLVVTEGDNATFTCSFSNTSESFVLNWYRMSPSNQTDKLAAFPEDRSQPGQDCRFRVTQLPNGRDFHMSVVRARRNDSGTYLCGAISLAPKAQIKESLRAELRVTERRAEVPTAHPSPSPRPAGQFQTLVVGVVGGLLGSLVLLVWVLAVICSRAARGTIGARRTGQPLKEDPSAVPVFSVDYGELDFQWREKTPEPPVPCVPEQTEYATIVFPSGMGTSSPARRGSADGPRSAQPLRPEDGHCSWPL

[5] = target: T1, Human PD-1 (prepared in Leadsbiolabs, …); experiment: blocking ELISA, human PD-1 coated, blocked ligand human PD-L1-mouse Fc-tag
[6] = target: T1, Human PD-1 (prepared in Leadsbiolabs, …); experiment: as above; remark: listed apart in the source
[7] = target: T2, Human PD-1 protein (SINO Biological …); experiment: ELISA, human PD-1 coated at 25 ng/well, detection with anti-human F(ab')2-HRP
[8] = target: T1, Human PD-1 (prepared in Leadsbiolabs, …); experiment: blocking ELISA, human PD-1 coated, blocked ligand human PD-L1-mouse Fc-tag; remark: listed apart in the source
[9] = target: T1, Human PD-1 (prepared in Leadsbiolabs, …); experiment: as above; remark: listed apart in the source
[10] = target: T2, Human PD-1 protein (SINO Biological …); experiment: ELISA, human PD-1 coated at 25 ng/well, detection with anti-human F(ab')2-HRP; remark: listed apart in the source
[11] = target: T2, Human PD-1 protein (SINO Biological …); experiment: as above; remark: listed apart in the source
[12] = target: T1, Human PD-1 (prepared in Leadsbiolabs, …); experiment: blocking ELISA, human PD-1 coated, blocked ligand human PD-L1-mouse Fc-tag; x axis printed as log values -1 to 2
[13] = target: T2, Human PD-1 protein (SINO Biological …); experiment: ELISA, human PD-1 coated at 25 ng/well, detection with anti-human F(ab')2-HRP; remark: listed apart in the source
[14] = target: T5, human CTLA-4 (Acrobiosystems, Cat# CT4-H5229) (human, UniProt P16410 36-161); experiment: ELISA, human CTLA-4 coated at 25 ng/well
T5 sequence (looked up): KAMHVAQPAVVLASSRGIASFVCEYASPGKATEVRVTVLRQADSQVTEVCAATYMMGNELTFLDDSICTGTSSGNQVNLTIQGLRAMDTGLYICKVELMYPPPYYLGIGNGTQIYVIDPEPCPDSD

[15] = target: T6, cynomolgus PD-1 expressed on stimulated cynomolgus PBMCs (cynomolgus monkey, UniProt B0LAJ3 25-288); experiment: flow cytometry on cynomolgus PBMCs after SEB stimulation, MFI
T6 construct: also called monkey PD-1; PD-1 expressed on cynomolgus monkey PBMCs
T6 sequence (B0LAJ3 entry or part of it limits assumed): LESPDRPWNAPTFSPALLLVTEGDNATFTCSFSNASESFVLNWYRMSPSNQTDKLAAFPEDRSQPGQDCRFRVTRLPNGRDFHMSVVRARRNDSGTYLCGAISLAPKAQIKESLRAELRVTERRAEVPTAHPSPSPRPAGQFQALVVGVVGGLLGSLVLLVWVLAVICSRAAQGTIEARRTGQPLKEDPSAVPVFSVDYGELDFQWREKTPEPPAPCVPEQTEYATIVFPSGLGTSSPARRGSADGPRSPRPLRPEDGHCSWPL

[16] = target: T7, Human ICOS (Acrobiosystems, Cat# ICS-H5250) (human, UniProt Q9Y6W8 21-140, limits assumed); experiment: ELISA, human ICOS coated at 25 ng/well
T7 sequence (looked up): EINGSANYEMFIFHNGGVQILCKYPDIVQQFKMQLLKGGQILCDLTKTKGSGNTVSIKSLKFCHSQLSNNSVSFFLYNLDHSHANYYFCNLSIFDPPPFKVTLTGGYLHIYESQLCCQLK

[17] = target: T8, mouse PD-1 protein (SINO Biological Inc., Cat#50124-M08H) (mouse, UniProt Q02242 25-167); experiment: ELISA, mouse PD-1 coated at 25 ng/well
T8 sequence (looked up): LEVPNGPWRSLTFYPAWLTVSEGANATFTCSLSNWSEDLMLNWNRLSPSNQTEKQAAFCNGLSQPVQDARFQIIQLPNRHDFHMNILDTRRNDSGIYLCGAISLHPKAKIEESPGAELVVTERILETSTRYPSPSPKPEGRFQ

[18] = target: T9, human BTLA (Acrobiosystems, Cat# BTA-H52E0) (human, UniProt Q7Z6A9 31-150, limits assumed); experiment: ELISA, human BTLA coated at 25 ng/well
T9 sequence (looked up): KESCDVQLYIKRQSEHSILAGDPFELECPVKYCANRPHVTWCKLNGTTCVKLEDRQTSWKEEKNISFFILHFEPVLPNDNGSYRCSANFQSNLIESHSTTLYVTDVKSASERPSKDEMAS

[19] = target: Human FcγRI (Acrobiosystems, Cat# FCA-H52H2) (human, UniProt P12314 16-288); experiment: ELISA, human FcγRI coated, detection with anti-human F(ab')2-HRP
Sequence of Human FcγRI (Acrobiosystems, Cat# FCA-H52H2) (P12314 16-288 limits assumed): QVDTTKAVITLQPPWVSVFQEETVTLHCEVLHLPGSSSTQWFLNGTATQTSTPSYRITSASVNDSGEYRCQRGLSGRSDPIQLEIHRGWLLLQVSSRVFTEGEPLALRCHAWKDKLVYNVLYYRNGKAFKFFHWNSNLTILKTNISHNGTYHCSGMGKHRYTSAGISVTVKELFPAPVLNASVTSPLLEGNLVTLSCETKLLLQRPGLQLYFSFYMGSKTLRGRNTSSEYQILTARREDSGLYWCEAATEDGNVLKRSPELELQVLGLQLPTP

T1 sequence (Q15116 25-170 limits assumed): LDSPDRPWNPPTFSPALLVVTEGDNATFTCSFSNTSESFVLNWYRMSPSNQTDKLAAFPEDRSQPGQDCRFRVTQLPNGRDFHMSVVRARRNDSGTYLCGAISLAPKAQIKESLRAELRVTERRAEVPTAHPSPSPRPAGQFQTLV

B1: IgG Control (antibody, V domains shown)
VH: QVQLQESGGGVVRPGGSLRLSCAASGFTFDDYGMSWVRQAPGKGLEWVSGINWSGGSTYYADSVKGRSTISRDNSKNTLYLQMNSLRAEDTAVYYCATGGYWGQGTLVTVSS
VL: not shown
notes: also called human IgG control
IC50 [1]: 3770 pM | binding result [2]: no binding (tested: about 2 nM) | binding result [3]: no binding (tested: about 2 nM)

B2: anti-PD-1 antibody 21F12 (mutant IgG1 constant region of SEQ ID NO: 18) (antibody, V domains shown)
VH: QMQLVQSGAEVKKPGASVKLSCKASGYIFTSYYIHWVRQAPGQGLEWVGVINPSGGSTTYAQKFQGRVTMTRDTSISTAYMELSRLRSDDTVVYYCARGSYSSGWDYYYYYGMDVWGKGTLVTVSS
VL: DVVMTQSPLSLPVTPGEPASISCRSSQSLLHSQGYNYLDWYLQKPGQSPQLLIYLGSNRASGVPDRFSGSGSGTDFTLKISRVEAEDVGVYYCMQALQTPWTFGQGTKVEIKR
notes: Full length IgG expressed in CHO-S cells
EC50 [4]: 1060 pM | IC50 [5]: 913 pM | IC50 [6]: 716 pM | EC50 [7]: 44.8 pM | IC50 [8]: 684 pM | IC50 [9]: 834 pM

B3: anti-PD-1 antibody 21F12-2E1 (mutant IgG1 constant region of SEQ ID NO: 18) (antibody, V domains shown)
VH: QMQLVQSGAEVKKPGASVKLSCKASEYIFQSYYIHWVRQAPGQGLEWVGVINPSGGSTTYAQKFQGRVTMTRDTSISTAYMELSRLRSDDTVVYYCARGSYSSGWDYYYYYGMDVWGKGTLVTVSS
VL: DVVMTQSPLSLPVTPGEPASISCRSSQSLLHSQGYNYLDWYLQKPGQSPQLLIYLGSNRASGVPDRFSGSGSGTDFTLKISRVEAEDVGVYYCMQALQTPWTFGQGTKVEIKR
notes: mutant IgG1
EC50 [10]: 136 pM | IC50 [5]: 1100 pM

B4: anti-PD-1 antibody 21F12-1B12 (mutant IgG1 constant region of SEQ ID NO: 18) (antibody, V domains shown)
VH: QMQLVQSGAEVKKPGASVKLSCKASGYPFQSYYIHWVRQAPGQGLEWVGVINPSGGSTTYAQKFQGRVTMTRDTSISTAYMELSRLRSDDTVVYYCARGSYSSGWDYYYYYGMDVWGKGTLVTVSS
VL: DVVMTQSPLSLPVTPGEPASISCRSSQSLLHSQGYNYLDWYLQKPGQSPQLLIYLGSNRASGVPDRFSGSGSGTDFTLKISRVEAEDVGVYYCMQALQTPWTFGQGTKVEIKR
notes: mutant IgG1
EC50 [10]: 102 pM | EC50 [4]: 257 pM | IC50 [5]: 623 pM | EC50 [11]: 93.6 pM | IC50 [12]: 725 pM

B5: anti-PD-1 antibody 21F12-1C4 (mutant IgG1 constant region of SEQ ID NO: 18) (antibody, V domains shown)
VH: QMQLVQSGAEVKKPGASVKLSCKASDYIFTSYYIHWVRQAPGQGLEWVGVINPSGGSTTYAQKFQGRVTMTRDTSISTAYMELSRLRSDDTVVYYCARGSYSSGWDYYYYYGMDVWGKGTLVTVSS
VL: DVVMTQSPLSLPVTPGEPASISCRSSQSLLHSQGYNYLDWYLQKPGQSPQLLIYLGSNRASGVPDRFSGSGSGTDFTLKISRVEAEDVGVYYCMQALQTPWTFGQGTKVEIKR
notes: mutant IgG1
EC50 [4]: 479 pM | IC50 [6]: 558 pM

B6: anti-PD-1 antibody 21F12-2H7 (mutant IgG1 constant region of SEQ ID NO: 18) (antibody, V domains shown)
VH: QMQLVQSGAEVKKPGASVKLSCKASQYIFQSYYIHWVRQAPGQGLEWVGVINPSGGSTTYAQKFQGRVTMTRDTSISTAYMELSRLRSDDTVVYYCARGSYSSGWDYYYYYGMDVWGKGTLVTVSS
VL: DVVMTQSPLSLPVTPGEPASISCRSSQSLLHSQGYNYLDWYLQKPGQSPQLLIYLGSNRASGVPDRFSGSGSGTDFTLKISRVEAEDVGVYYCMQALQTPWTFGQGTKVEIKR
notes: mutant IgG1
EC50 [10]: 101 pM | IC50 [5]: 1150 pM

B7: anti-PD-1 antibody 21F12-1E11 (mutant IgG1 constant region of SEQ ID NO: 18) (antibody, V domains shown)
VH: QMQLVQSGAEVKKPGASVKLSCKASGYFFQSYYIHWVRQAPGQGLEWVGVINPSGGSTTYAQKFQGRVTMTRDTSISTAYMELSRLRSDDTVVYYCARGSYSSGWDYYYYYGMDVWGKGTLVTVSS
VL: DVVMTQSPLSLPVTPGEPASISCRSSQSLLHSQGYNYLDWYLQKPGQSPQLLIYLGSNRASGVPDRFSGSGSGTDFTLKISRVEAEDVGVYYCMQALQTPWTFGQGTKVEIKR
notes: mutant IgG1
EC50 [10]: 93.6 pM | EC50 [13]: 91.4 pM | IC50 [5]: 654 pM

B8: anti-PD-1 antibody 21F12-1E10 (mutant IgG1 constant region of SEQ ID NO: 18) (antibody, V domains shown)
VH: QMQLVQSGAEVKKPGASVKLSCKASGYPFTSYYIHWVRQAPGQGLEWVGVINPSGGSTTYAQKFQGRVTMTRDTSISTAYMELSRLRSDDTVVYYCARGSYSSGWDYYYYYGMDVWGKGTLVTVSS
VL: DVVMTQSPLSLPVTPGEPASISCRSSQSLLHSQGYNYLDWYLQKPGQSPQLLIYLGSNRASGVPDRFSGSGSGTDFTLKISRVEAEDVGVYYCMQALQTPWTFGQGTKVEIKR
notes: mutant IgG1
EC50 [13]: 111 pM | EC50 [4]: 464 pM | IC50 [8]: 482 pM

B9: anti-PD-1 antibody 21F12-3G1 (mutant IgG1 constant region of SEQ ID NO: 18) (antibody, V domains shown)
VH: QMQLVQSGAEVKKPGASVKLSCKASGYIFTSYYIHWVRQAPGQGLEWVGVINPSGGSTTYAQKFQGRVTMTRDTSISTAYMELSRLRSDDTVVYYCARGSYNSGWDYYYYYGMDVWGKGTLVTVSS
VL: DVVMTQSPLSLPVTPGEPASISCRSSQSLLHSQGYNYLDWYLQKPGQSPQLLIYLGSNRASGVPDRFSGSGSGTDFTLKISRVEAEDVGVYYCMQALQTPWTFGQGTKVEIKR
notes: mutant IgG1
EC50 [13]: 108 pM | EC50 [4]: 334 pM | IC50 [9]: 699 pM

B10: Nivolumab analog (antibody, human IgG4 S228P, kappa, V domains shown)
VH: QVQLVESGGGVVQPGRSLRLDCKASGITFSNSGMHWVRQAPGKGLEWVAVIWYDGSKRYYADSVKGRFTISRDNSKNTLFLQMNSLRAEDTAVYYCATNDDYWGQGTLVTVSS
VL: EIVLTQSPATLSLSPGERATLSCRASQSVSSYLAWYQQKPGQAPRLLIYDASNRATGIPARFSGSGSGTDFTLTISSLEPEDFAVYYCQQSSNWPRTFGQGTKVEIKR
notes: also called positive control
binding result [14]: no binding (tested: about 2 nM) | EC50 [15]: 692 pM | binding result [16]: no binding (tested: about 2 nM) | binding result [17]: no binding (tested: about 2 nM) | binding result [18]: no binding (tested: about 2 nM)

B11: Rituximab analog (antibody, human IgG1, kappa)
heavy: not shown
light: QIVLSQSPAILSASPGEKVTMTCRASSSVSYIHWFQQKPGSSPKPWIYATSNLASGVPVRFSGSGSGTSYSLTISRVEAEDAATYYCQQWTSNPPTFGGGTKLEIKRTVAAPSVFIFPPSDEQLKSGTASVVCLLNNFYPREAKVQWKVDNALQSGNSQESVTEQDSKDSTYSLSSTLTLSKADYEKHKVYACEVTHQGLSSPVTKSFNRGEC
notes: Wild type IgG1 heavy chain constant region; also called positive control of the FcγRI ELISA
binding result [19]: binds

From patent publication US20190352402A1 (NANJING LEADS BIOLABS, published 2019)
